B1: His8-MBP:AtHb3 (Arabidopsis thaliana class 3 non-symbiotic, truncated hemoglobin / phytoglobin, before tag cleavage) (natural protein, UniProt Q67XG0 1-175, looked up)
chain: MQSLQDKASVLSGVDQAEAFAIDESNLFDKLGLQTFINLSTNFYTRVYDDEEEWFQSIFSNSNKEDAIQNQYEFFVQRMGGPPLYSQRKGHPALIGRHRPFPVTHQAAERWLEHMQNALDDSVDIDQDSKIKMMKFFRHTAFFLVAGNELKNQNEKPKHKPQCACKHAANKPAEE
notes: AtHb3, class 3 non-symbiotic (truncated, 2-on-2) hemoglobin of Arabidopsis thaliana; Heme protein; Expressed from pVP16 (Gateway) with an N-terminal 8xHis:MBP double tag and a TEV site; carboxy form oxidised to the ferric form on the column; also called His8-MBP-tagged AtHb3; 8xHis:MBP:Hb3; not shown: His8, N-terminal, kept; MBP, N-terminal, kept
B2: AtHb3 (Arabidopsis thaliana class 3 non-symbiotic, truncated hemoglobin / phytoglobin, His8-MBP removed) (natural protein, UniProt Q67XG0 1-175, looked up)
chain: MQSLQDKASVLSGVDQAEAFAIDESNLFDKLGLQTFINLSTNFYTRVYDDEEEWFQSIFSNSNKEDAIQNQYEFFVQRMGGPPLYSQRKGHPALIGRHRPFPVTHQAAERWLEHMQNALDDSVDIDQDSKIKMMKFFRHTAFFLVAGNELKNQNEKPKHKPQCACKHAANKPAEE
notes: AtHb3, class 3 non-symbiotic (truncated, 2-on-2) hemoglobin of Arabidopsis thaliana; Heme protein; The gene primer encodes ENLYFQ directly before the first Met, the adapter primer ENLYFQG before Met; also called class 3 nsHb; source: TEV cleavage, HisTrap removal of the tag, anion exchange; not shown: His8, N-terminal, cleaved; MBP, N-terminal, cleaved
B3: His8-MBP:AtHb1 (Arabidopsis thaliana class 1 non-symbiotic hemoglobin / phytoglobin, before tag cleavage) (natural protein, UniProt O24520 1-160, looked up)
chain: MESEGKIVFTEEQEALVVKSWSVMKKNSAELGLKLFIKIFEIAPTTKKMFSFLRDSPIPAEQNPKLKPHAMSVFVMCCESAVQLRKTGKVTVRETTLKRLGASHSKYGVVDEHFEVAKYALLETIKEAVPEMWSPEMKVAWGQAYDHLVAAIKAEMNLSN
notes: AtHb1, class 1 non-symbiotic hemoglobin of Arabidopsis thaliana; Heme protein; Expressed from pVP16 (Gateway) with an N-terminal 8xHis:MBP double tag and a TEV site; also called His8-MBP-tagged AtHb1; 8xHis:MBP:Hb1; not shown: His8, N-terminal, kept; MBP, N-terminal, kept
B4: AtHb1 (Arabidopsis thaliana class 1 non-symbiotic hemoglobin / phytoglobin, His8-MBP removed) (natural protein, UniProt O24520 1-160, looked up)
chain: MESEGKIVFTEEQEALVVKSWSVMKKNSAELGLKLFIKIFEIAPTTKKMFSFLRDSPIPAEQNPKLKPHAMSVFVMCCESAVQLRKTGKVTVRETTLKRLGASHSKYGVVDEHFEVAKYALLETIKEAVPEMWSPEMKVAWGQAYDHLVAAIKAEMNLSN
notes: AtHb1, class 1 non-symbiotic hemoglobin of Arabidopsis thaliana; Heme protein; The gene primer encodes ENLYFQ directly before the first Met, the adapter primer ENLYFQG before Met; also called class 1 nsHb; source: TEV cleavage, HisTrap removal of the tag, size exclusion and/or anion exchange; not shown: His8, N-terminal, cleaved; MBP, N-terminal, cleaved

Target: the molecule itself
Test: SEC; analytical size exclusion chromatography of the purified proteins, before and after His8-MBP removal; apparent native size in solution

Stoichiometry N, 2:
B1
B2
B3
B4
